Drawing on US20210380714A1, this text covers Kd for 1 substance.

The target in assay [1] is recombinant human soluble MSLN (rHuMSLN sol.) (human) (UniProt Q13421). As to the kind of experiment: Biacore, soluble human MSLN. On the technique in general: SPR reads the build-up and loss of mass on a sensor chip optically.
Assay [2] deals with native human MSLN expressed on the cell surface (N87 / NCI-N87 tumor cells) (human) (UniProt Q13421). As to the kind of experiment: KinExA, native hu MSLN on cells. (A kinetic exclusion assay measures how much of one partner remains free in solution.)
In assay [3] the target is recombinant human soluble MSLN (rHuMSLN sol.) (human) (UniProt Q13421). Nature of the assay: published value quoted in the Biacore column; the sheet does not name its source.

Chain of recombinant human soluble MSLN (rHuMSLN sol.) (human) (Q13421 296-606 limits assumed): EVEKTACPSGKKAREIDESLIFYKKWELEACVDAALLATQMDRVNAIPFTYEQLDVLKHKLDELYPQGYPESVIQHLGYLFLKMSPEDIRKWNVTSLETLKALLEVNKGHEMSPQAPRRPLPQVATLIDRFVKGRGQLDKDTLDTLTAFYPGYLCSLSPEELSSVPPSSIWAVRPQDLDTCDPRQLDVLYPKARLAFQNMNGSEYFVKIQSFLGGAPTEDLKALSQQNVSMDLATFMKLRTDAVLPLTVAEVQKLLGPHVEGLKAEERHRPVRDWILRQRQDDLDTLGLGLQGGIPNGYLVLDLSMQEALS
Chain of native human MSLN expressed on the cell surface (N87 / NCI-N87 tumor cells) (human) (Q13421 296-606 limits assumed): as above

As for MORAb-009 (antibody), the Kd (usually a measure of binding affinity in units of concentration) came out at 160 pM in assay [1], 2.2 pM in assay [2] and 1500 pM in assay [3].
